B1: Compound No. 319: [6Ψ7,NHCO,D-Tyr1,Arg(Me)9]MS10 (peptide)
peptide: [dY]NWNSFGL[Arg(Me)]F-NH2
modifications: also: Phe6-Gly7 bond replaced by NHCO (retro-inverso)
B2: Compound No. 297: [D-Tyr1,Thr5,AzaGly7,Arg(Me)9]MS10 (peptide)
peptide: [dY]NWNTF[azaGly]L[Arg(Me)]F-NH2
B3: Compound No. 298: [D-Tyr1,D-Asn2,Thr5,AzaGly7,Arg(Me)9]MS10 (peptide)
peptide: [dY][dN]WNTF[azaGly]L[Arg(Me)]F-NH2
B4: Compound No. 316: [D-Tyr1,D-Asn2,Thr3,AzaGly7,Arg(Me)9,Phe(4F)10]MS10 (peptide)
peptide: [dY][dN]TNSF[azaGly]L[Arg(Me)][Phe(4-F)]-NH2
B5: Compound No. 56: [Lys2]MS10 (peptide)
peptide: YKWNSFGLRF-NH2
B6: Compound No. 209: [D-Tyr1,Gln4,Arg(Me)9]MS10 (peptide)
peptide: [dY]NWQSFGL[Arg(Me)]F-NH2
modifications: N-terminus assumed
SMILES: CNC(=N)NCCC[C@H](NC(=O)[C@H](CC(C)C)NC(=O)CNC(=O)[C@H](Cc1ccccc1)NC(=O)[C@H](CO)NC(=O)[C@H](CCC(N)=O)NC(=O)[C@H](Cc1c[nH]c2ccccc12)NC(=O)[C@H](CC(N)=O)NC(=O)[C@H](N)Cc1ccc(O)cc1)C(=O)N[C@@H](Cc1ccccc1)C(N)=O
B7: Compound No. 385: des(1)-[D-Tyr2,D-Pya(4) 3,AzaGly7,Arg(Me)9,Trp10]MS10 (peptide)
peptide: [dY][d4Pal]NSF[azaGly]L[Arg(Me)]W-NH2
modifications: N-terminus assumed
SMILES: CNC(=N)NCCC[C@H](NC(=O)[C@H](CC(C)C)NC(=O)NNC(=O)[C@H](Cc1ccccc1)NC(=O)[C@H](CO)NC(=O)[C@H](CC(N)=O)NC(=O)[C@@H](Cc1ccncc1)NC(=O)[C@H](N)Cc1ccc(O)cc1)C(=O)N[C@@H](Cc1c[nH]c2ccccc12)C(N)=O
B8: Compound No. 173: [D-Tyr1,Ala7,Arg(Me)9]MS10 (peptide)
peptide: [dY]NWNSFAL[Arg(Me)]F-NH2
modifications: N-terminus assumed
SMILES: CNC(=N)NCCC[C@H](NC(=O)[C@H](CC(C)C)NC(=O)[C@H](C)NC(=O)[C@H](Cc1ccccc1)NC(=O)[C@H](CO)NC(=O)[C@H](CC(N)=O)NC(=O)[C@H](Cc1c[nH]c2ccccc12)NC(=O)[C@H](CC(N)=O)NC(=O)[C@H](N)Cc1ccc(O)cc1)C(=O)N[C@@H](Cc1ccccc1)C(N)=O
B9: Compound No. 397: Methylthiocarbamoyl-Sar-[D-Tyr1,Arg(Me)9]MS10 (peptide)
peptide: GYNWNSFGLRF
modifications: N-terminal Methylthiocarbamoyl-Sar added before position 1; D-Tyr1; Arg(Me)9 (MS10 numbering); C-terminal amide
B10: Compound No. 207: [D-Tyr1,Ser4,Arg(Me)9]MS10 (peptide)
peptide: [dY]NWSSFGL[Arg(Me)]F-NH2
modifications: N-terminus assumed
SMILES: CNC(=N)NCCC[C@H](NC(=O)[C@H](CC(C)C)NC(=O)CNC(=O)[C@H](Cc1ccccc1)NC(=O)[C@H](CO)NC(=O)[C@H](CO)NC(=O)[C@H](Cc1c[nH]c2ccccc12)NC(=O)[C@H](CC(N)=O)NC(=O)[C@H](N)Cc1ccc(O)cc1)C(=O)N[C@@H](Cc1ccccc1)C(N)=O
B11: Compound No. 45: [Ala8]MS10 (peptide)
peptide: YNWNSFGARF-NH2
B12: Compound No. 315: des(1)-[D-Asn2,Cha3,AzaGly7,Arg(Me)9]MS10 (peptide)
peptide: [dN][Cha]NSF[azaGly]L[Arg(Me)]F-NH2
modifications: N-terminus assumed
SMILES: CNC(=N)NCCC[C@H](NC(=O)[C@H](CC(C)C)NC(=O)NNC(=O)[C@H](Cc1ccccc1)NC(=O)[C@H](CO)NC(=O)[C@H](CC(N)=O)NC(=O)[C@H](CC1CCCCC1)NC(=O)[C@H](N)CC(N)=O)C(=O)N[C@@H](Cc1ccccc1)C(N)=O
B13: Compound No. 375: 2-Aminoethyl-Gly-[D-Tyr1,Arg(Me)9]MS10 (peptide)
peptide: {2‑aminoethyl}-G[dY]NWNSFGL[Arg(Me)]F-NH2
modifications: not fully specified (residue 1); printed as 2-Aminoethyl-Gly-[D-Tyr1,Arg(Me)9]MS10
B14: Compound No. 76: [Lys1]MS10 (peptide)
peptide: KNWNSFGLRF-NH2
B15: Compound No. 74: [Ser1]MS10 (peptide)
peptide: SNWNSFGLRF-NH2
B16: Compound No. 87: des(4-5)-Boc-MS10 (peptide)
peptide: Boc-YNWFGLRF-NH2
SMILES: CC(C)C[C@H](NC(=O)CNC(=O)[C@H](Cc1ccccc1)NC(=O)[C@H](Cc1c[nH]c2ccccc12)NC(=O)[C@H](CC(N)=O)NC(=O)[C@H](Cc1ccc(O)cc1)NC(=O)OC(C)(C)C)C(=O)N[C@@H](CCCNC(=N)N)C(=O)N[C@@H](Cc1ccccc1)C(N)=O
B17: Compound No. 79: [Hph10]MS10 (peptide)
peptide: YNWNSFGLRX
modifications: Hph10; C-terminal amide
B18: Compound No. 98: [Lys(Me2)9]MS10 (peptide)
peptide: YNWNSFGL[Lys(Me2)]F-NH2
B19: Compound No. 88: des(4-5)-MS10 (peptide)
peptide: YNWFGLRF-NH2
B20: Compound No. 386: des(1-3)-3-Pyridylpropionyl-[AzaGly7,Arg(Me)9,Trp10]MS10 (peptide)
peptide: {Propanoyl(3-(3-pyridyl))}-NSF[azaGly]L[Arg(Me)]W-NH2
SMILES: CNC(=N)NCCC[C@H](NC(=O)[C@H](CC(C)C)NC(=O)NNC(=O)[C@H](Cc1ccccc1)NC(=O)[C@H](CO)NC(=O)[C@H](CC(N)=O)NC(=O)CCc1cccnc1)C(=O)N[C@@H](Cc1c[nH]c2ccccc12)C(N)=O
B21: Compound No. 274: des(1-2)-Acetyl-[Ala3,AzaGly7,Arg(Me)9]MS10 (peptide)
peptide: Ac-ANSF[azaGly]L[Arg(Me)]F-NH2
SMILES: CNC(=N)NCCC[C@H](NC(=O)[C@H](CC(C)C)NC(=O)NNC(=O)[C@H](Cc1ccccc1)NC(=O)[C@H](CO)NC(=O)[C@H](CC(N)=O)NC(=O)[C@H](C)NC(C)=O)C(=O)N[C@@H](Cc1ccccc1)C(N)=O
B22: Compound No. 387: Dap-[D-Tyr1,Arg(Me)9]MS10 (peptide)
peptide: XYNWNSFGLRF
modifications: N-terminal Dap added before position 1; D-Tyr1; Arg(Me)9 (MS10 numbering); C-terminal amide
B23: Compound No. 172: [D-Tyr1,Cha6,Arg(Me)9]MS10 (peptide)
peptide: YNWNSXGLRF
modifications: D-Tyr1; Cha6; Arg(Me)9; C-terminal amide
B24: Compound No. 111: [Phe(F5)10]MS10 (peptide)
peptide: YNWNSFGLR[Phe(F5)]-NH2
B25: Compound No. 105: [Nle8]MS10 (peptide)
peptide: YNWNSFGXRF
modifications: Nle8; C-terminal amide
B26: Compound No. 112: [Cha10]MS10 (peptide)
peptide: YNWNSFGLRX
modifications: Cha10; C-terminal amide
B27: Compound No. 32: Leu-Pro-Asn-MS10 (peptide)
peptide: LPNYNWNSFGLRF-NH2
B28: Compound No. 54: des(1-2)-Fmoc-MS10 (peptide)
peptide: Fmoc-WNSFGLRF-NH2
SMILES: CC(C)C[C@H](NC(=O)CNC(=O)[C@H](Cc1ccccc1)NC(=O)[C@H](CO)NC(=O)[C@H](CC(N)=O)NC(=O)[C@H](Cc1c[nH]c2ccccc12)NC(=O)OCC1c2ccccc2-c2ccccc21)C(=O)N[C@@H](CCCNC(=N)N)C(=O)N[C@@H](Cc1ccccc1)C(N)=O
B29: Compound No. 97: [Har9]MS10 (peptide)
peptide: YNWNSFGLXF
modifications: Har9; C-terminal amide
B30: Compound No. 110: [Nal(2)10]MS10 (peptide)
peptide: YNWNSFGLRX
modifications: Nal(2)10; C-terminal amide
B31: Compound No. 114: des(1-3)-3-(3-Indolyl)propionyl-MS10 (peptide)
peptide: {Propanoyl(3-indol-3-yl)}-NSFGLRF-NH2
SMILES: CC(C)C[C@H](NC(=O)CNC(=O)[C@H](Cc1ccccc1)NC(=O)[C@H](CO)NC(=O)[C@H](CC(N)=O)NC(=O)CCc1c[nH]c2ccccc12)C(=O)N[C@@H](CCCNC(=N)N)C(=O)N[C@@H](Cc1ccccc1)C(N)=O
B32: Compound No. 17: [Pya(4)10]MS10 (peptide)
peptide: YNWNSFGLRX
modifications: Pya(4)10; C-terminal amide

Experimental findings from patent US20060241051A1 (Takeda / Millennium, published 2006) are described below.

Square brackets hold non-standard residues; d marks the D form. Ends that are not written are not given here. * marks the point of attachment. Propanoyl(3-indol-3-yl) = O=C(CCc1c[nH]c2ccccc12)*; Phe(F5) = N[C@@H](Cc1c(F)c(F)c(F)c(F)c1F)C(=O)O; Propanoyl(3-(3-pyridyl)) = O=C(CCc1cccnc1)*; Phe(4-F) = N[C@@H](Cc1ccc(F)cc1)C(=O)O; Arg(Me) = CNC(=N)NCCC[C@H](N)C(=O)O; Fmoc = O=C(OCC1c2ccccc2-c2ccccc21)*; Lys(Me2) = CN(C)CCCC[C@H](N)C(=O)O; d4Pal = N[C@H](Cc1ccncc1)C(=O)O; Cha = N[C@@H](CC1CCCCC1)C(=O)O; Boc = CC(C)(C)OC(=O)*; azaGly = NNC(=O)O

The target of the first assay is T1, human OT7T175 (metastin receptor) (human, UniProt Q969F8 1-398). Nature of the assay: cell-based or functional assay.
T1 sequence (Q969F8 whole entry L364H): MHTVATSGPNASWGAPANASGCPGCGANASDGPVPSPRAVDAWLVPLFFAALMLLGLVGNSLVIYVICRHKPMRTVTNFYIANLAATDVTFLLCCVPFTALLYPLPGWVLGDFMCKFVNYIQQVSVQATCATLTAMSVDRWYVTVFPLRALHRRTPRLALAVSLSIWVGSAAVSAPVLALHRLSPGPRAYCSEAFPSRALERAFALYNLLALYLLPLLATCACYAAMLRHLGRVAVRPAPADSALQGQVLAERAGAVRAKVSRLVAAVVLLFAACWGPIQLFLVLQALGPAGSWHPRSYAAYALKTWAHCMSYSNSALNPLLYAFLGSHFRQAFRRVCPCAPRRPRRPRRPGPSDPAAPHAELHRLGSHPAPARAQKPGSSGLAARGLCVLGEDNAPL
B1: the “intracellular Ca ion level-increasing activity (FLIPR)” value is 3 specific activity to metastin (1-54). For B2, the “intracellular Ca ion level-increasing activity (FLIPR)” value is 1 specific activity to metastin (1-54). Still for that read-out and setting: the value for B3 was 5 specific activity to metastin (1-54); that for B4 was 1 specific activity to metastin (1-54).

Another assay deals with human OT7T175 (metastin receptor) (human) (UniProt Q969F8). Briefly: cell-based or functional assay.
human OT7T175 (metastin receptor) (human), sequence (Q969F8 whole entry L364H): as above
B5 yielded an intracellular Ca ion level-increasing activity (FLIPR) (specific activity to metastin (1-54)) of 1. Molecule B6 displayed an intracellular Ca ion level-increasing activity (FLIPR) (specific activity to metastin (1-54)) of 0.5. Consider B7, for which the intracellular Ca ion level-increasing activity (FLIPR) (specific activity to metastin (1-54)) is 10. Turning to B8, the intracellular Ca ion level-increasing activity (FLIPR) (specific activity to metastin (1-54)) was determined as 1. Take B9: the intracellular Ca ion level-increasing activity (FLIPR) (specific activity to metastin (1-54)) is 5.

B10 showed an intracellular Ca ion level-increasing activity (FLIPR) (specific activity to metastin (1-54)) of 0.5.

For B11, the intracellular Ca ion level-increasing activity (FLIPR) (specific activity to metastin (1-54)) was found to be 1. In turn, B12 had an intracellular Ca ion level-increasing activity (FLIPR) (specific activity to metastin (1-54)) of 1. In the case of B13, the intracellular Ca ion level-increasing activity (FLIPR) (specific activity to metastin (1-54)) was 2.

On to B14, for which the intracellular Ca ion level-increasing activity (FLIPR) (specific activity to metastin (1-54)) worked out at 1. Consider B15, for which the intracellular Ca ion level-increasing activity (FLIPR) (specific activity to metastin (1-54)) is 1.

The molecule B16 had an intracellular Ca ion level-increasing activity (FLIPR) (specific activity to metastin (1-54)) of 1. In turn, B17 showed an intracellular Ca ion level-increasing activity (FLIPR) (specific activity to metastin (1-54)) of 1.

B18 came in with an intracellular Ca ion level-increasing activity (FLIPR) (specific activity to metastin (1-54)) of 0.5. With B19, the intracellular Ca ion level-increasing activity (FLIPR) (specific activity to metastin (1-54)) came out at 1. Still for that read-out and setting: for B20 the value was 7. In turn, B21 yielded an intracellular Ca ion level-increasing activity (FLIPR) (specific activity to metastin (1-54)) of 1. Consider B22, for which the intracellular Ca ion level-increasing activity (FLIPR) (specific activity to metastin (1-54)) was found to be 1.

B23 displayed an intracellular Ca ion level-increasing activity (FLIPR) (specific activity to metastin (1-54)) of 1.

For the next assay, the target named is T1, human OT7T175 (metastin receptor). Briefly: FMAT competition with Cy-5-labeled metastin (40-54), hOT7T175-expressed CHO cells.
On to B24, for which the concentration for half-maximal inhibition (IC50) (commonly the concentration that inhibits the measured activity by half) was 140 nM.

Molecule B25 yielded an IC50 of 880 nM. In turn, B26 displayed an IC50 of 370 nM. B2 showed an IC50 of 0.93 nM. B3 returned an IC50 of 0.25 nM.

Turning to B4, the IC50 was determined as 26 nM. Against the preceding molecule, the IC50 is about 100-fold higher. Take B27: the IC50 came out at 25 nM. Turning to B28, the half-inhibitory concentration (IC50) worked out at 450 nM. This IC50 is about 18-fold higher than that of the molecule before. In the case of B29, the IC50 amounted to 370 nM. This IC50 and that of the molecule before are within 1.5-fold of each other.

The molecule B30 yielded an IC50 of 24 nM.

Consider B31, for which the half-inhibitory concentration (IC50) was 550 nM. As for B32, the half-maximal inhibitory concentration (IC50) turned out to be 0.0066 nM.

For another assay the target is unchanged. Briefly: cell-based or functional assay. The source holds these as a separate data set.
With B24, the “intracellular Ca ion level-increasing activity (FLIPR)” value was 3 specific activity to metastin (1-54). The same measure, in the same setting: the value for B25 was 1 specific activity to metastin (1-54); that for B26 was 2 specific activity to metastin (1-54); that for B27 was 10 specific activity to metastin (1-54). Same read-out and setting: for B28 the value was 5 specific activity to metastin (1-54); for B29, 10 specific activity to metastin (1-54); for B30, 20 specific activity to metastin (1-54). The same measure, in the same setting: for B31 the value was 3 specific activity to metastin (1-54); for B32, 5 specific activity to metastin (1-54).
